Where two headings read alike, the source gives them in different places.
B1: MPV364 (antibody, V domains shown)
VH: QVQLVQSGAEVKKPGASVKVSCKASGYTFTHDSIHWVRQAPGQRLEWMGWINVGNGDTKSSQKFQDRLTITRDTSANTAYMEVRSLKYEDTAMYFCARVDQYCIGGVCYGGKNWFDPWGQGTLVTVSS
VL: SYELNQPPSVSVAPGQTAMITCGGYYVGVKSLHWYQQKAGQAPVLVVHDDSDRPSGIPERFSGSKSGDTATLIISRVEAGDEADYYCQVWDRDSDHPYVFGTGTTVTVL
notes: also called mAb MPV364; hMPV364
B2: MPV458 (antibody, V domains shown)
VH: QGKLVESGGGVIQPGRSLRLSCAASGFDFSRYGLHWVRQAPGKGLEWVAVIVYAGSNKYYADSVKGRFTISKDNSKNTMHLQMSDLRTEDTAVYYCARDQAFDLWGQGTMVTVSS
VL: DIQMTQSPASLSASVGDRVTITCQASQGISRSVNWYQQKPGKAPKLLIFDASHLERGVPSRFSGSGYGTDFTFTISSLQPEDIATYYCQQYDNLRISFGQGTRLEIK
notes: also called mAb MPV458; MPV458 IgG
B3: MPV201 (antibody, V domains shown)
VH: QVQLVQSGGGGVQPGRSLRLSCAASGFIFSDYGMHWVRQAPGKGLEWVAVISYDGSNQYYADSVKGRFTISRDNSRNTLYLQMNSLRVEDTAVYYCAKDQGRRYYYSSGYLDYWGQGTLVTVSS
VL: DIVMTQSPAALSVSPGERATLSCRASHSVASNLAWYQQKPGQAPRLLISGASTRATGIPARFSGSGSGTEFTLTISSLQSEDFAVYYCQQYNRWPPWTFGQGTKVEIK
notes: also called mAb MPV201
B4: MPV196 (antibody, V domains shown)
VH: QVQLQQWGAGLLKPSETLSLTCAVYGGSFSGYSWTWIRQPPGKGLEWIGEINHSGSTNYNPSLKSRVTISIDTSRNQFSLKLISVTAADTAVYYCARGVRGGYNLWHFDVWGQGTLVTVSS
VL: SYELSQSPSVSVSPGQTARITCSGDKLGNKYASWYQQKPGQSPVLVIYQDDKRPSGIPERFSGSNSGNTATLTIGGTQAMDEADYSCQAWDGRTAVVFGGGTKLTVL
notes: also called mAb MPV196
B5: MPV314 (antibody, V domains shown)
VH: QVQLVQSGGGVVQPGRSLRLSCAASGFSFSDYGMDWVRQAPGKGLEWVAVISYDGSNQYYADSVKGRFTVSRDNSKNTVYLQMNSLRAEDTAVYFCAKDESRRYYYSSGIHSHWGQGTLVTVSS
VL: DIVMTQSPATLSVSPGERATLSCRASQSVSRNLAWYQQKPGQAPRLLIFGASTRATGIPARFSGSASGTEFTLTISSLQSEDFAVYYCHQYNYWPPGTFGQGTRLEIK
notes: also called mAb MPV314
B6: MPE8 (antibody, V domains shown)
VH: EVQLVESGGGLVKPGGSLRLSCAASGFTFSSYSMNWVRQAPGKGLEWVSSISASSSYSDYADSAKGRFTISRDNAKTSLFLQMNSLRAEDTAIYFCARARATGYSSITPYFDIWGQGTLVTVSS
VL: QSVVTQPPSVSGAPGQRVTISCTGSSSNIGAGYDVHWYQQLPGTAPKLLIYDNNNRPSGVPDRFSASKSGTSASLAITGLQAEDEADYYCQSYDRSLSGVFGTGTKVTVL
notes: also called mAb MPE8; MPE8 antibody

Assays:
[1] = molecular target: hMPV F protein of hMPV A2 strain CAN/97-83 (human metapneumovirus, UniProt Q6WB98 19-539); assay: cell-based or functional assay
[2] = molecular target: hMPV F protein of hMPV B2 strain TN/93-32 (human metapneumovirus); assay: cell-based or functional assay
[3] = molecular target: T1, hMPV A1 F (human metapneumovirus); assay: ELISA on coated antigen, mAb titrated; EC50 box, key 1
[4] = molecular target: T2, hMPV A2 F (human metapneumovirus); assay: ELISA on coated antigen, mAb titrated; EC50 box, key 2
[5] = molecular target: T3, hMPV B1 F (human metapneumovirus); assay: ELISA on coated antigen, mAb titrated; EC50 box, key 3
[6] = molecular target: hMPV B2 F GCN4
[7] = molecular target: T1, hMPV A1 F
[8] = molecular target: T2, hMPV A2 F
[9] = molecular target: T3, hMPV B1 F
[10] = molecular target: T4, hMPV B2 F (human metapneumovirus)
[11] = molecular target: hMPV B2 F-GCN4 dFP 6R (human metapneumovirus)
[12] = molecular target: T5, monomeric hMPV B2 F protein treated with trypsin (human metapneumovirus); assay: ELISA on trypsin-treated monomeric and trimeric hMPV B2 F
[13] = molecular target: T6, trimeric hMPV B2 F protein treated with trypsin (human metapneumovirus); assay: ELISA on coated antigen, mAb titrated; panel hMPV B2 F trimer (trypsin), key 2
[14] = molecular target: T5, monomeric hMPV B2 F protein treated …; assay: ELISA on coated antigen, mAb titrated; panel hMPV B2 F monomer (trypsin), key 2
[15] = molecular target: T7, hMPV 130-BV (human metapneumovirus); assay: ELISA on coated antigen, mAb titrated; EC50 list entry 5 of 7 (marker of hMPV 130BV)
T7 construct: also called hMPV 130-BV F; hMPV F 130-BV

[16] = molecular target: T4, hMPV B2 F; assay: ELISA on coated antigen, mAb titrated; EC50 box, key 4
[17] = molecular target: T6, trimeric hMPV B2 F protein treated with …; assay: ELISA on coated antigen, mAb titrated; panel hMPV B2 F trimer (trypsin), key 1
[18] = molecular target: T5, monomeric hMPV B2 F protein treated …; assay: ELISA on coated antigen, mAb titrated; panel hMPV B2 F monomer (trypsin), key 1

Binder | IC50, plaque neutralization [1] | IC50, plaque neutralization [2] | EC50 [3] | EC50 [4] | EC50 [5] | EC50 [6] | EC50 [7] | EC50 [8] | EC50 [9] | EC50 [10] | EC50 [11] | 50% inhibitory concentration (IC50), plaque neutralization [1] | 50% inhibitory concentration (IC50), plaque neutralization [2] | fold EC50, monomeric against trimeric hMPV B2 F [12] | EC50 [13] | EC50 [14] | EC50 [15] | EC50 [16] | EC50 [17] | EC50 [18]
B1 | 0.008 µg/mL | 0.018 µg/mL | 0.25 µg/mL | 0.44 µg/mL | 0.2 µg/mL | – | – | – | – | – | – | – | – | – | – | – | – | – | – | –
B2 | – | – | – | – | – | 0.2 µg/mL | 0.75 µg/mL | 0.39 µg/mL | 0.39 µg/mL | 0.6 µg/mL | 0.37 µg/mL | 0.033 µg/mL | 0.49 µg/mL | ~4 fold lower | 0.9 µg/mL | 0.25 µg/mL | 0.24 µg/mL | – | – | –
B3 | – | – | 0.104 µg/mL | 0.14 µg/mL | 0.042 µg/mL | – | – | – | – | – | – | – | – | – | – | – | – | 0.089 µg/mL | – | –
B4 | – | – | 0.15 µg/mL | 0.204 µg/mL | 0.077 µg/mL | 0.18 µg/mL | 0.27 µg/mL | 0.17 µg/mL | 0.12 µg/mL | 0.44 µg/mL | 0.15 µg/mL | – | – | – | – | – | 0.14 µg/mL | 0.136 µg/mL | 0.17 µg/mL | 0.091 µg/mL
B5 | – | – | 0.096 µg/mL | 0.102 µg/mL | 0.039 µg/mL | – | – | – | – | – | – | – | – | – | – | – | – | – | – | –
B6 | – | – | – | – | – | 4.7 µg/mL | 14 µg/mL | 4.3 µg/mL | 3.1 µg/mL | 36 µg/mL | 5.9 µg/mL | – | – | – | – | – | 1.8 µg/mL | – | – | –
